Target: T1, IL-17A (human, UniProt Q16552)
T1 sequence: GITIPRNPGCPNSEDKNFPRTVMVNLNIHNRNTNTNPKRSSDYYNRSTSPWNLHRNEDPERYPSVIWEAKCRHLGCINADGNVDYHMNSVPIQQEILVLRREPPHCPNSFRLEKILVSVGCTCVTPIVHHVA
Assay: cell-based or functional assay

B1: ixekizumab (antibody, V domains shown)
VH: QVQLVQSGAEVKKPGSSVKVSCKASGYSFTDYHIHWVRQAPGQGLEWMGVINPMYGTTDYNQRFKGRVTITADESTSTAYMELSSLRSEDTAVYYCARYDYFTGTGVYWGQGTLVTVSS
VL: DIVMTQTPLSLSVTPGQPASISCRSSRSLVHSRGNTYLHWYLQKPGQSPQLLIYKVSNRFIGVPDRFSGSGSGTDFTLKISRVEAEDVGVYYCSQSTHLPFTFGQGTKLEIKR
- Relative potency of Formulation A (% relative to Formulation B; ratio of EC50s), 1 month at 5° C.: 101%
- Relative potency of Formulation A (% relative to Formulation B; ratio of EC50s), 1 month at 25° C.: 98%
- Relative potency of Formulation A (% relative to Formulation B; ratio of EC50s), 1 month at 35° C.: 101%
- Relative potency of Formulation A (% relative to Formulation B; ratio of EC50s), 6 months at 5° C.: 103%
- Relative potency of Formulation A (% relative to Formulation B; ratio of EC50s), 12 months at 5° C.: 98%

From US20230183334A1, “THERAPEUTIC ANTIBODY FORMULATION” (published 2023)
